Assay results: patent US20260234228A1 (GENOME, published 2026)

T1: mouse CNTN4 overexpressed on 293F cells (mouse, UniProt Q69Z26 19-1000)
T1 construct: whole, on cells; Overexpressed on 293F cells; the construct is not described; also called Mouse CNTN4 cell; mouse antigen-overexpressing 293F cells
T1 sequence (looked up): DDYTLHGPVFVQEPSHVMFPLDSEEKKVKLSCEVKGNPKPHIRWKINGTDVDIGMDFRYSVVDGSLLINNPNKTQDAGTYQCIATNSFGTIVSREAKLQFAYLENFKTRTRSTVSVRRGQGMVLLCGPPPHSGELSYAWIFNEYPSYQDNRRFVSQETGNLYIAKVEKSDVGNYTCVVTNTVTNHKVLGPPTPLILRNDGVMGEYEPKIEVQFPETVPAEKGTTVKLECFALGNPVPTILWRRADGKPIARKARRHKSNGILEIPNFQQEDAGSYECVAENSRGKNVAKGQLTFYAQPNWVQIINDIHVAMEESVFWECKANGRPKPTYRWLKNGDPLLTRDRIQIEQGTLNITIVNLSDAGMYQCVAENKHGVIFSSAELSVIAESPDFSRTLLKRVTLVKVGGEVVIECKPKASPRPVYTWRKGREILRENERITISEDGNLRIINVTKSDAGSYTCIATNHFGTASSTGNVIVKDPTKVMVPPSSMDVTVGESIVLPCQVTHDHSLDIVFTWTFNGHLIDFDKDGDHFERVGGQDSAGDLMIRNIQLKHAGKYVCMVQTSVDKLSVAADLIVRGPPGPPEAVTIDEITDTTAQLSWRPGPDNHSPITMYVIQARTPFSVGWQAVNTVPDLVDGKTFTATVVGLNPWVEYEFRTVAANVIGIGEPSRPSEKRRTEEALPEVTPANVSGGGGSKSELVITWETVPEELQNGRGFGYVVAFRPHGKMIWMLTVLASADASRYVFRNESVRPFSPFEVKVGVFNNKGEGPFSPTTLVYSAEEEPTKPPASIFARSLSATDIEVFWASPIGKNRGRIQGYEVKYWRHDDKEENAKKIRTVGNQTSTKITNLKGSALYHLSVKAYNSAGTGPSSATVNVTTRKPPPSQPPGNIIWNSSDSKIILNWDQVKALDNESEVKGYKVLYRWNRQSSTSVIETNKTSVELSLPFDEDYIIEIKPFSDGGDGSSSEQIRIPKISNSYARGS

T2: human CNTN4 overexpressed on cells (human, UniProt Q8IWV2 19-1000)
T2 construct: whole, on cells; the construct is not described; also called human CNTN4 cell; human CNTN4-overexpressing 293F cells
T2 sequence (looked up): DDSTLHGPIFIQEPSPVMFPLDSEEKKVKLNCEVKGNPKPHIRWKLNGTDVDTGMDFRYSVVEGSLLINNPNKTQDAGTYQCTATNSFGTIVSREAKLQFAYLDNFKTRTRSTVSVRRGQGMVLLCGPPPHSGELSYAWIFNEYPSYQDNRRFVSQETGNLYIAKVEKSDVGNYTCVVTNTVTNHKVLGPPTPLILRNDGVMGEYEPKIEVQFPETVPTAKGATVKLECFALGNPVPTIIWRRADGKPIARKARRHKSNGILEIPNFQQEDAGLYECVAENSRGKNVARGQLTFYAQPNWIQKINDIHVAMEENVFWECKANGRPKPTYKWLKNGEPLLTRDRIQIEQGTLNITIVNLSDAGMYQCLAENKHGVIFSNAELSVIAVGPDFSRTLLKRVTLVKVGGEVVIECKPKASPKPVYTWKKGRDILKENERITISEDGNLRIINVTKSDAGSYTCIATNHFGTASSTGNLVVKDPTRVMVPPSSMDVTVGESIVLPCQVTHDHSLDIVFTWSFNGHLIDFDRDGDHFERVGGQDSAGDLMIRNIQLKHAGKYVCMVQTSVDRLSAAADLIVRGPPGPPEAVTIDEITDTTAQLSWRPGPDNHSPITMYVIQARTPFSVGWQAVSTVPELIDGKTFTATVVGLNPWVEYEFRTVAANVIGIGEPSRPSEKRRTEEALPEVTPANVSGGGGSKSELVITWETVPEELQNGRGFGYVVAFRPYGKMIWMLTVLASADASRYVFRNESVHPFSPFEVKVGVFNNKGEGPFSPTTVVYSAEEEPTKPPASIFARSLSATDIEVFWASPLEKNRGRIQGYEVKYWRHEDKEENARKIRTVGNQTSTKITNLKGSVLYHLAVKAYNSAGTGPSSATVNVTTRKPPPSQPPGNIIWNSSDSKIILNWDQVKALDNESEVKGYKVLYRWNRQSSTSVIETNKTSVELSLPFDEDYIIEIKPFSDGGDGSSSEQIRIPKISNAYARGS


biological target: T1, mouse CNTN4 overexpressed on 293F cells; experiment: FACS, scFv periplasm on mouse CNTN4-overexpressing 293F cells, PE anti-His detection

| EC50 | Top MFI | Binder |
| --- | --- | --- |
| 33.2 nM | 2070 MFI | A101 scFv (scFv, V domains shown) VH: not shown VL: ELTQDPAVSVALGQTVRITCSGSSGSYGWYQQKPGQAPVLVIYDNTNRPSGIPDRFSGSSSGNTASLTITGAQAEDEADYYCGGYDGSTDVFGGGTKLTVL |
| 13.6 nM | 4110 MFI | A107 scFv (scFv, V domains shown) VH: not shown VL: ELTQDPAVSVALGQTVRITCSGSSGSYGWYQQKPGQAPVLVIYDNTNRPSGIPDRFSGSSSGNTASLTITGAQAEDEADYYCGGYDGSTDVFGGGTKLTVL |
| 72.6 nM | 2740 MFI | A106 scFv (scFv, V domains shown) VH: not shown VL: ELTQDPAVSVALGQTVRITCSGSSGSYGWYQQKPGQAPVLVIYDNTNRPSGIPDRFSGSSSGNTASLTITGAQAEDEADYYCGGYDGSTDVFGGGTKLTVL |
| 13.9 nM | 2460 MFI | A105 scFv (scFv, V domains shown) VH: not shown VL: ELTQDPAVSVALGQTVRITCSGSSGSYGWYQQKPGQAPVLVIYDNTNRPSGIPDRFSGSSSGNTASLTITGAQAEDEADYYCGGYDGSTDVFGGGTKLTVL |

biological target: T2, human CNTN4 overexpressed on cells; experiment: FACS, scFv periplasm on human CNTN4-overexpressing 293F cells, PE anti-His detection

| Binder | EC50 | Top MFI |
| --- | --- | --- |
| A206 scFv (scFv, V domains shown) VH: not shown VL: ELTQDPAVSVALGQTVRITCSGRSGSYGWYQQKPGQAPVLVIYDNTNRPSGIPDRFSGSSSGNTASLTITGAQAEDEADYYCGGYWGSTDVFGGGTKLTVL | 4.8 nM | 1370 MFI |
| A219 scFv (scFv, V domains shown) VH: not shown VL: ELTQDPAVSVALGQTVRITCSGSSGSYGWYQQKPGQAPVLVIYDNTNRPSGIPDRFSGSSSGNTASLTITGAQAEDEADYYCGGYWGSTDVFGGGTKLTVL | 3.9 nM | 1270 MFI |
| A218 scFv (scFv, V domains shown) VH: not shown VL: ELTQDPAVSVALGQTVRITCSGRSGSYGWYQQKPGQAPVLVIYDNTNRPSGIPDRFSGSSSGNTASLTITGAQAEDEADYYCGGYWGSTDVFGGGTKLTVL | 3.7 nM | 1290 MFI |
| A201 scFv (scFv, V domains shown) VH: not shown VL: ELTQDPAVSVALGQTVRITCSGRSGSYGWYQQKPGQAPVLVIYDNTNRPSGIPDRFSGSSSGNTASLTITGAQAEDEADYYCGGYWGSTDVFGGGTKLTVL | 3.2 nM | 1380 MFI |
| A203 scFv (scFv, V domains shown) VH: not shown VL: ELTQDPAVSVALGQTVRITCSGRSGSYGWYQQKPGQAPVLVIYDNTNRPSGIPDRFSGSSSGNTASLTITGAQAEDEADYYCGGYWGSTDVFGGGTKLTVL | 3.3 nM | 1240 MFI |
| A210 scFv (scFv, V domains shown) VH: not shown VL: ELTQDPAVSVALGQTVRITCSGRSGSYGWYQQKPGQAPVLVIYDNTNRPSGIPDRFSGSSSGNTASLTITGAQAEDEADYYCGGYWGSTDVFGGGTKLTVL | 4.4 nM | 1380 MFI |
| A208 scFv (scFv, V domains shown) VH: not shown VL: ELTQDPAVSVALGQTVRITCSGSSGSYGWYQQKPGQAPVLVIYDNTNRPSGIPDRFSGSSSGNTASLTITGAQAEDEADYYCGGYWGSTDVFGGGTKLTVL | 3.7 nM | 1320 MFI |
| A207 scFv (scFv, V domains shown) VH: not shown VL: ELTQDPAVSVALGQTVRITCSGSSGSYGWYQQKPGQAPVLVIYDNTNRPSGIPDRFSGSSSGNTASLTITGAQAEDEADYYCGGYWGSTDVFGGGTKLTVL | 3.2 nM | 1620 MFI |
| A214 scFv (scFv, V domains shown) VH: not shown VL: ELTQDPAVSVALGQTVRITCSGSSGSYGWYQQKPGQAPVLVIYDNTNRPSGIPDRFSGSSSGNTASLTITGAQAEDEADYYCGGYWGSTDVFGGGTKLTVL | 3.5 nM | 1460 MFI |
| A215 scFv (scFv, V domains shown) VH: not shown VL: ELTQDPAVSVALGQTVRITCSGSSGSYGWYQQKPGQAPVLVIYDNTNRPSGIPDRFSGSSSGNTASLTITGAQAEDEADYYCGGYWGSTDVFGGGTKLTVL | 3.6 nM | 1470 MFI |

Now from value to binder:

| EC50 | Top MFI | Binder |
| --- | --- | --- |
| 3.2 nM | 1700 MFI | A213 scFv (scFv, V domains shown) VH: not shown VL: ELTQDPAVSVALGQTVRITCSGSSGSYGWYQQKPGQAPVLVIYDNTNRPSGIPDRFSGSSSGNTASLTITGAQAEDEADYYCGGYWGSTDVFGGGTKLTVL |
| 3.1 nM | 1370 MFI | A211 scFv (scFv, V domains shown) VH: not shown VL: ELTQDPAVSVALGQTVRITCSGRSGSYGWYQQKPGQAPVLVIYDNTNRPSGIPDRFSGSSSGNTASLTITGAQAEDEADYYCGGYWGSTDVFGGGTKLTVL |
| 3 nM | 1750 MFI | A202 scFv (scFv, V domains shown) VH: not shown VL: ELTQDPAVSVALGQTVRITCSGRSGSYGWYQQKPGQAPVLVIYDNTNRPSGIPDRFSGSSSGNTASLTITGAQAEDEADYYCGGYWGSTDVFGGGTKLTVL |
| 2.9 nM | 1630 MFI | A216 scFv (scFv, V domains shown) VH: not shown VL: ELTQDPAVSVALGQTVRITCSGRSGSYGWYQQKPGQAPVLVIYDNTNRPSGIPDRFSGSSSGNTASLTITGAQAEDEADYYCGGYWGSTDVFGGGTKLTVL |
| 2.8 nM | 1740 MFI | A217 scFv (scFv, V domains shown) VH: not shown VL: ELTQDPAVSVALGQTVRITCSGSSGSYGWYQQKPGQAPVLVIYDNTNRPSGIPDRFSGSSSGNTASLTITGAQAEDEADYYCGGYWGSTDVFGGGTKLTVL |
| 2.7 nM | 1630 MFI | A212 scFv (scFv, V domains shown) VH: not shown VL: ELTQDPAVSVALGQTVRITCSGRSGSYGWYQQKPGQAPVLVIYDNTNRPSGIPDRFSGSSSGNTASLTITGAQAEDEADYYCGGYWGSTDVFGGGTKLTVL |
| 2.3 nM | 1600 MFI | A209 scFv (scFv, V domains shown) VH: not shown VL: ELTQDPAVSVALGQTVRITCSGRSGSYGWYQQKPGQAPVLVIYDNTNRPSGIPDRFSGSSSGNTASLTITGAQAEDEADYYCGGYWGSTDVFGGGTKLTVL |
| 2 nM | 1300 MFI | A205 scFv (scFv, V domains shown) VH: not shown VL: ELTQDPAVSVALGQTVRITCSGSSGSYGWYQQKPGQAPVLVIYDNTNRPSGIPDRFSGSSSGNTASLTITGAQAEDEADYYCGGYWGSTDVFGGGTKLTVL |
| 1.7 nM | 1700 MFI | A204 scFv (scFv, V domains shown) VH: not shown VL: ELTQDPAVSVALGQTVRITCSGRSGSYGWYQQKPGQAPVLVIYDNTNRPSGIPDRFSGSSSGNTASLTITGAQAEDEADYYCGGYWGSTDVFGGGTKLTVL |
